Tested on: MS2 coat protein
Assay: apparent KD of MS2 coat protein; designed switch direction (-1 OFF switch, 1 ON switch): -1; higher = weaker reporter binding
In short: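 Stalled E. coli RNA polymerase transcribed designed RNA switches on Illumina chips, which were then titrated with SNAP-549-labelled MS2 coat protein, doubling from 0.7 or 1.5 nM to 3 µM. Steps lasted from 0.8–1.5 h at the lowest concentration to 10–20 min at the highest. The apparent KD is each design's median over clusters of curve-fitted normalised fluorescence.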

[1] = input ligand: microRNA oligo, concentration not stated
[2] = Eterna round: R95, input ligand: FMN 200 uM
[3] = Eterna round: R95, input ligand: microRNA oligo, concentration not stated
[4] = Eterna round: R95, input ligand: none

Row | Sequence | apparent KD of MS2 coat protein (input ligand: FMN 200 uM) | apparent KD of MS2 coat protein (input ligand: none) | apparent KD of MS2 coat protein [3] | also measured
1 | GGCGCCUCAGGAUAUCAGUCUGGAUCAGAAAAGAUCCUGACUGAGAAGGGACAUGAGGAUCACCCAUGUUCGCC [Mat - Exclusion 4 - Eli Mod - D52] (Eterna round: R97, puzzle: Exclusion 4) | 17.3 nM | 18.4 nM |  | 
2 | GGCUUGCUAGUAGGAUAUCGCUUGUACAUGAGGAUCACCCAUGUGUGAUAUGCCUACAUAGUGCGUGAGAAGGACUGCAAGCCG [Diatdiinin] (Eterna round: R96, puzzle: Exclusion NG 2) | 23.2 nM | 14.1 nM |  | apparent KD of MS2 coat protein [1]: 8.15 nM
3 | GGGAUGUCAGGAUAUCCGAAAGUCUACCAAUACGGCAGACAGGAGAAGGGACAUGAGGAUCACCCAUGUAAAGA [Quatma] (puzzle: Exclusion 4) |  |  | 36.7 nM | apparent KD of MS2 coat protein [2]: 114 nM; apparent KD of MS2 coat protein [4]: 52.4 nM
4 | GGGCAGGGAGGAUAUGUAUCGCACUACAUGAGGAUCACCCAUGUGCCUUUUGUGACGUGGACAGAAGGUCCUGCCG [Eternabot (L1) Solution 17] (Eterna round: R97, puzzle: Exclusion 5) | 129 nM | 193 nM |  | 
5 | GGGCCCGGAGGAUAUACAAUGGGCCCGGGAAAUUGGGCCCUACAUGAGGAUCACCCAUGUAGAAGGCCGGGCCC [-40.2, -38.1 kcal A 24%, 5c,0] (Eterna round: R97, puzzle: Exclusion 2) | 16.1 nM | 12.5 nM |  | 
6 | GGGCUGUCAGGAUAUGUGUGUGUGUGUGAAAGCGCGCGCGCGCAGAAGGGACAUGAGGAUCACCCAUGUGGCCC [-35.3, -34.3 kcal, A 20%, 6bis-0] (Eterna round: R97, puzzle: Exclusion 4) | 32.1 nM | 33 nM |  | 
7 | GGGCUUAAAGGAUAUGCAAGGAGCCACAUGAGGAUCACCCAUGUACAACCUCAGUCCCUGGUAGAAGGUUACGCAA [whoooo] (Eterna round: R97, puzzle: Exclusion 5) | 35 nM | 30.6 nM |  | 
8 | GGGUAGUGAGGAUAUCUUGGCAAACCCGAACCUGUCAGCCAAGAGAAGGCACUUGAGGAUCACCCAAGUACAGG [Raeratti] (Eterna round: R97, puzzle: Exclusion 4) | 88.7 nM | 26.8 nM |  | 
9 | GGGUGACAUGAGGAUCACCCAUGUCAGGAUAUGAUACUAUGUACUUCGGUACAUAGUAUCAGAAGGGACAUCCC [Ex1-3: 16] (puzzle: Exclusion 1) |  |  | 41.8 nM | 
10 | GGUACUAACACGAAAGUGUUAGUACUGUAGGUUUGUGUUACAUGAGGAUCACCCAUGUCCUCAUAAGCUCGUCUUGU [JL-sv3-2.22 mat747 mod] (puzzle: Sensor v3, turn-off variant 2) |  |  | 246 nM | apparent KD of MS2 coat protein [2]: 306 nM; apparent KD of MS2 coat protein [4]: 347 nM
11 | GGUACUAUCACCUGAGUGGUAGUGCCAUAAGCUUGUGAUACAUGAGGAUCACCCAUGUCCUCAUUUGCUCGUCUUAU [JL-sv3-2.27 JL mod] (puzzle: Sensor v3, turn-off variant 2) |  |  | 394 nM | apparent KD of MS2 coat protein [2]: 486 nM
12 | GGUAGAGAGCAGGAUAUCUUGGGUAAGUAUCGUAGAGAAGGGCUCACAUGAGGAUCACCCAUGUGGUCCAAGAU [JL Dibiri mod 05] (puzzle: Exclusion 6) |  |  | 14.2 nM | 
13 | GGUCAACGUGUGAGGAUAUGUCAACCCUGUGGAAAGCAGAAGGCACAUGAGGAUCACCCAUGUAAUAAGAAAAC [Soasois] (Eterna round: R97, puzzle: Brourd's mod of Exclusion 4) | 29.9 nM | 262 nM |  | 
14 | GGUCCACAUGAGGAUCACCCAUGUUAGGAUAUCUCGCCCGAGCCCAUAUGGGCCAGGCAGAGAAGGAAUGUGAA [Quertixees] (puzzle: Exclusion 1) |  |  | 18.8 nM | 
15 | GGUCCACAUGAGGAUCACCCAUGUUAGGAUAUCUCGUCCGAGCAGUUAUGGGCCGGGCAGAGAAGGAAUGUGAA [Orbibibi] (puzzle: Exclusion 1) |  |  | 25.7 nM | 
16 | GGUCGACAUGAGGAUCACCCAUGUCAGGAUAUCGUCACUGGAGCCUCGGCUCCAGUGACGAGAAGGGAUAUGAU [E1/17-A2] (Eterna round: R97, puzzle: Exclusion 1) | 41.9 nM | 43.9 nM |  | 
17 | GGUCUGCGAGGAUAUACAUGAGGAUCACCCAUGUGCGAGAUACUAGUGAGGUCGAUUGGUAGAAGGCGCGGACA [Mat - Exclusion 3 - Mod of JL D84] (puzzle: Exclusion 3) |  |  | 90.4 nM | 
18 | GGUGAAGCAGGAUAUGUAUCGAUAUACAUGAGGAUCACCCAUGUCAUGUUUGAAUCGCAUAUAGAAGGGCUUCACC [Exclusion 5 (FMN-MS2 slide)] (Eterna round: R97, puzzle: Exclusion 5) | 58.1 nM | 20.8 nM |  | 
19 | GGUGAGCUAGGAUAUGCUUUGGGCACGCAUUCCUUCGAUAAACUUGAGGAUCACCCAAGUAGAAGGAGCUUGCC [salish99_ex2_r4_030] (Eterna round: R97, puzzle: Exclusion 2) | 18.1 nM | 12.9 nM |  | 
20 | GGUGAGCUAGGAUAUGCUUUGGGCUCGCUUUCCUUCGAUAUACUUGAGGAUCACCCAAGUAGAAGGAGCUUGCC [salish99_ex2_r4_034] (Eterna round: R97, puzzle: Exclusion 2) | 11.1 nM | 11.2 nM |  | 
21 | GGUGAGCUAGGAUAUGCUUUGGGCUCGCUUUCCUUCGAUUUACUUGAGGAUCACCCAAGUAGAAGGAGCUUGCC [salish99_ex2_r4_035] (Eterna round: R97, puzzle: Exclusion 2) | 13.5 nM | 12.9 nM |  | 
22 | GGUGCGAGUGUGAGGAUAUGCUGGUCGUAAGAUCAGCAGAAGGCACAUGAGGAUCACCCAUGUGAAAACGUACC [Mat - Exclusion 4 - JL Mod - D75] (puzzle: Brourd's mod of Exclusion 4) |  |  | 18.8 nM | 
23 | GGUGCGUUUGUGAGGAUAUGCUGGUCCUUGGUUCGGCAGAAGGCACAUGAGGAUCACCCAUGUGGUGUCGCACC [salish99_Bmod_Ex4_049] (puzzle: Brourd's mod of Exclusion 4) |  |  | 65.9 nM | 
24 | GGUGGGCUAGGAUAUGCUUUGGGCAGGCAUUCCUUCGAUAAACUUGAGGAUCACCCAAGUAGAAGGAGCUUGCC [salish99_ex2_r4_025] (Eterna round: R97, puzzle: Exclusion 2) | 10.8 nM | 10.7 nM |  | 
25 | GGUGUCGUCAGAAGACAUGAGGAUCACCCAUGUAAAUGCACUGAGGAUAUACGGGCGACCGGCGUGUAGAAGGUAGAGCACGAA [Ladivequ] (Eterna round: R96, puzzle: Exclusion NG 3) | 43 nM | 41.6 nM |  | apparent KD of MS2 coat protein [1]: 24.5 nM

From the supplement of paper PMC9170038
